Assay: soluble on expression in E. coli; label from the status in PepcDB or PDB records

MGSDKIHHHHHHMSTDKLAIIAVTERGRDLAITLTKTVAATIFVPEKHCTEQTNSLTPDFGTAMREIFTKYQALICIMATGIAVRTLAPVIEDKLSDPAVLVMDEHGKFIISLLSGHVGGANELTERIATITGGAAVITTATDRANVAAIDNIAKQLNGYLPDFKATTKRINGLLAAGKEVGLYIDEPLEIDTRGFTMEEVSPQVYISTKYKLQVATHERIQLVPKQFILGVGCRKGVSAETIDAAFTHFCEQENIHPRAFREIHSITLKAEEPAILHLAEKWHVPFIVHPAEELQTVAGKYPTSAFVQKTVQVGNVALSSADIGSNGNVVTSRFAENGVTFAAGKLTKNSEVAK
soluble on expression in E. coli: not soluble

MSLKNIKSNLGDYATLVFDCDGVLLDSNKVKTQAFYEAALPYGEMAAQALADHHVANGGISRYKKFSYFLEHIVAQHAEGPSLEHLLDRYAENVSSGLLSCDIASGIRELRAKTPNTRWLIVSGGDQTELREVFAQRKLAEIFDGGIFGSPDAKEEIIARELRSSNIAPPALFIGDSKYDFKAASESNLDFLFLSDWSEVKNWQQWCNENNIYALGNISSLLETCTHPEEGHHHHHH
soluble on expression in E. coli: soluble

MGSDKIHHHHHHMKAGLRIGLVGPLPPPSGGMANQTLQLAGLLREEHVEVELIQVNRPYRPGWIGRFKGIRAGFRLLSYVSQLWLSAGRVQLFHVMANSGWSWHLFAAPAIWIARLRGKPVIINYRGGEADSFFDKAFSWVKPSLSRANAIIVPSGFLEGVFGKRGFSASIVPNIIDLSRFGAGMRSDTSTVEAGPDSPHIIVTRNLEPIYDNETALRAFHIVRRSFPAAKLTLAGSGPERHTLEQLAFALGIGGAVTFTGRVDNEGMAAIYRSASVMLNPSLADNMPISILEALASGVPVVSTNVGGVPYLVEHEKNALLVPARDPQAMANAVLRLLNDAARTRRLIEAGMECVQRYTWPNVRVPLFRVYEQVLAAPDRSC
soluble on expression in E. coli: not soluble

MVTLILLAGGSGTRASLNLPKQYYRIEEKMVIEYTLENVSRVKGVDNIILVSNPRFMDTALELKESFPKIKDVAKGGRTRNESIYNGFMKVPQKESKILVHDAVRPFTPRWVFERIISLLDERDVITTVNPITGNLIELDNGKVKRIYDRSKFAIGEAPTGYRYGALKKTLEVAVSNGTLNEIPHDIVLAMNAGFDVYVLPCNCFNLKITFKEDIEIARTLIKMLEERE
soluble on expression in E. coli: soluble

GAITKAVFDNEQGQAQRLQTSSSVEHGQMLFKDANLKTPSDVLNAFAKLDSKMVKSHAAELSQLAERAMTEVMLETDSGKNLKALIGDDAVKSLAVRVVKDYGGGVAAAQKNPEVRINQMQAVFDMEVMHLKAAQRHIEGLASTDLNQGVYAEGLPEDAFNKAGVTNNVERAAAWIINASNSKGNDAENITSLLKEYATNGKDLLNMDNLKELHARLVPNVERDYRGPNISGGTLPSSIGGEGMLKQHIEGFLKENPVADKDLGKHLFAGVIGYHGFTDGNGRMGRMLYAIAELRNDSFNPLAMNAENSLHGIK
soluble on expression in E. coli: soluble

MSLVDFIDDNRGEFGVEPICTVLRSAGLQVALSTYYDAKARVPSARALRDAVLGPALCQLWKDNYCVYGARKLWKTARRDGHDVGRDQVARLMRAAGIEGVRRGKRVRTTKADPAAARHPDLVHRNFAAAAPNQLWATDLTFVPTWAGVAYVCFIIDAHSRMIVGWRVASHMRTSMVLDALEMARWSRGTTLQDLICHSDAGSQFTSIRYGERLAEIGAVPSIGTVGDSFDNALAETVNGYYKAELIYGPARSRPWKTVEDVELATLSWVHWHNTSRLHSYLGDIPPTEFEAAFYDAYRTDQPLIGIQEGHHHHHH
soluble on expression in E. coli: not soluble

MGSDKIHHHHHHMRNVKIDEVDRLDRDVVALGNDYAQGFILPPHQHRRAQLLYGATGLMYVTTQDGEWVVPPQHAVWIPPETVHAVRFAGVTTRSLYIEPDCVAAFIKHRRCEVISVSPLLRQLLLEAVDLPPLYDSPRDRALIQLMLLELAAMPVREFDIPLPQHPALLALCQAFLLNPSIHDPAARWARALFMSPSTFRRHFLKQLGLSFSAWRQRACVVSALAWLIAGKPVNEVALSLGYDNASSFATMFRRVTGQPPSFYHPA
soluble on expression in E. coli: not soluble

GNSKKHNLILIGAPGSGKGTQCEFIKKEYGLAHLSTGDMLREAIKNGTKIGLEAKSIIESGNFVGDEIVLGLVKEKFDLGVCVNGFVLDGFPRTIPQAEGLAKILSEIGDSLTSVIYFEIDDSEIIERISGRCTHPASGRIYHVKYNPPKQPGIDDVTGEPLVWRDDDNAEAVKVRLDVFHKQTAPLVKFYEDLGILKRVNAKLPPKEVTEQIKKIL
soluble on expression in E. coli: soluble

MYSVSLMHGNPKTAIRPAGWHYGRRVYWIEGLPLIGHIAFGVIDRGTNVLQVRPSTLCFHNCIFCSVDAGPSSRRRRSEYTVEWEQLVVWVEKVARVKGGGLEALIDGVGEPLTHPHITRIIKALKGLDAIERVALETHGGSLSKSLARALEKAGLDRINLSVDAADPRLARSLVGVDWYGVDRVLKTAEWIIANTSIDVVLTPVVLPGVNEKEMATLVHWARRVGAGRKSGWPTGVLIQKFEIHKYGRKPSTVKSVWGWRRFYTWLARLEKETGYRLLVDPGEIGFKPRPRVEKPFERGDRVTLVLVGPGWHKGELLAVDRGWRRVVALYGLTEGEALTPGAEVEARIVRDKDNIFIAVPYAAALEHHHHHH
soluble on expression in E. coli: soluble

STDYGEEQRNELEALESIYPDSFTVLSESPPSFTITVTSEAGENDETVQTTLKFTYSEKYPDETPLYEIFSQENLEDNDVSDILKLLALQAEENLGMVMIFTLVTAVQEKLNEIVDQIKTRREEEKKQKEKEAEEAEKKLFHGTPVTIENFLSWKAKFDAELLEIKKKRMKEEEQAGKNKLSGKQLFETDHNLDTSDIQFLEDAGNNVEVDESLFQEMDDLELEDGEDDPDYNPVAPGSDSSD
soluble on expression in E. coli: soluble

MGSDKIHHHHHHMNQEDDAKLAYLMAVNAIQMTKARYCRFVDTKQWDRLRTLFTADCRFEGLGSAPDRADLDIFIQGISRRLAHVVSVHHCHMGEIELVGADEAKVIWAMEDHLEWQDSGEVVEAPGNRGFRGYGHYEECYVRQGDTWKISLLRLTRLGIHPIPDAQPRLGTGRLGANPDWLPSDRRLR
soluble on expression in E. coli: not soluble

MRIFAVFIFMTYWHLLNAFTVTVPKDLYVVEYGSNMTIECKFPVEKQLDLAALIVYWEMEDKNIIQFVHGEEDLKVQHSSYRQRARLLKDQLSLGNAALQITDVKLQDAGVYRCMISYGGADYKRITVKVNAPYNKINQRILVVDPVTSEHELTCQAEGYPKAEVIWTSSDHQVLSGKTTTTNSKREEKLFNVTSTLRINTTTNEIFYCTFRRLDPEENHTAELVIPELPLIEGRSRGSGLNDIFEAQKIEWHHHHHHHH
soluble on expression in E. coli: soluble

MFPNSILGHPPFTPNHQQHNNFFTLSPTVYSHQQLIDAQFNFQNADLSRAVSLQQLTYGNVSPIQTSASPLFRGRKRLSDEKNLPLDGKRQRFHSPHQEPTVVNQIVPLSGERRYSMPPLFHTHYVPDIVRCVPPFREIAFLEPREITLPEAKDKLSQQILELFETCQQQISDLKKKELCRTQLQREIQLLFPQSRLFLVGSSLNGFGTRSSDGDLCLVVKEEPCFFQVNQKTEARHILTLVHKHFCTRLSGYIERPQLIRAKVPIVKFRDKVSCVEFDLNVNNIVGIRNTFLLRTYAYLENRVRPLVLVIKKWASHHQINDASRGTLSSYSLVLMVLHYLQTLPEPILPSLQKIYPESFSPAIQLHLVHQAPCNVPPYLSKNESNLGDLLLGFLKYYATEFDWNSQMISVREAKAIPRPDGIEWRNKYICVEEPFDGTNTARAVHEKQKFDMIKDQFLKSWHRLKNKRDLNSILPVRAA
soluble on expression in E. coli: not soluble

MGSDKIHHHHHHMFVDTTLRDGHQSLIATRMRTEDMLPALEAFDRMNFHSMEVWGGATFDVAVRFLNENPWERLKKIREGLKNTKIQMLLRGQNLVGYRHYADDVVELFIKKVAEYGLDIIRIFDALNDERNLQKSIEESKKHGLHVQVAISYTVSPVHTLDYYLDFARKLLDMGVDSICIKDMAGLLTPKRAYELVRALKEKFGVPVEVHSHCTTGFAPLAYQAAYEAGADFFDTAISPFSMGTSQPTFETMYYAFRGNGKEDFDREALKFLVDHFTKVRMKYIEYDVGMKYPDSRIIFSQIPGGMYSNLLKQLKEQRMEHLLDKVLEEVPRVQKDLGYPPLVTPTSQIVGVQAFLNVVYGRYERITNETRNYVKGLYGRPPAPIDPELMRKILGDEKPIDCRPADLLEPELDKTRKELGILVETDEDLLIAVILGEVGKKFLRKKYEEKIGVDFNYLESLSDFTDDMPVYPV
soluble on expression in E. coli: not soluble

MSQTKIEWADKVWNPVSGCTKISEGCQNCYAERMSKRLAGRCGYPAEEPFKVTPHPEKLGEPLKWRKPLRIFVNSMSDLFHADVPDKFIINVLSMIAEASHHTFLILTKRPERMRELLNHDTIANDVWLQTSRGVNAERSPWPLPNLWLGVSAENQAAADERIPILLQTPAAVRFVSVEPMLSEVNLSRYLKRPICKHWGRNGDPNIYGRYFWGKQALVGAGWVGIDWVICGGETGPGARPMHPVWVRDLRDQCRVAGTPFFFKSFGEYVRVGECMNEEDDEEFYSKSSAAGTNVQRLNLQGGMGYHGPKSIYMQRIGKKRAGRELDGRTWEEFPLEHHHHHH
soluble on expression in E. coli: not soluble

MQERVFHVASPKAKLYSEADQAIRERLKDFPKALRAYEMLVQDPEARSGWNMANYLTMRKLGYNDHGRVHALLTGAASVAILALLSEAGVRLDTVESGAGELEDAYVVVLLSTMLHDLGNQVHRFGHEAFGVVLALPILNRILDKLYPDPEQRTAIRALILHGIYSHDLSPEPLTIEAGITAVADGTDITKGRGRKAFQLGSIDIHSISALAVDEVRILKGEKVPVEIQVTMNNSAGIFQVEETLTKKVLKSPLRPYVTVVAMTDGEGGQDQRIVHRVRLHETEDRFVLD
soluble on expression in E. coli: soluble

LTSTLLRLSTDKIGAIIAIENQDSLESYVNIGYRVTSDFSPELLVTIFYNKQSPLHDGAVIVRDYQIVSVSSYFPMTRQLIDVSYGSRHRSALGLTEKCDAIVFIVSETTGKISVAVRGVIK
soluble on expression in E. coli: not soluble

MSLKSDEVFAKIAKRLESIDPANRQVEHVYKFRITQGGKVVKNWVMDLKNVKLVESDDAAEATLTMEDDIMFAIGTGALPAKEAMAQDKMEVDGQVELIFLLEPFIASLK
soluble on expression in E. coli: soluble

LALHKVIMVGSGGVGKSALTLQFMYDEFVEDYEPTKADSYRKKVVLDGEEVQIDILDTAGLEDYAAIRDNYFRSGEGFLLVFSITEHESFTATAEFREQILRVKAEEDKIPLLVVGNKSDLEERRQVPVEEARSKAEEWGVQYVETSAKTRANVDKVFFDLMREIRTKKMSENK
soluble on expression in E. coli: soluble

GPGSMAAMASRALISSPSHLLQKFDSCRTIFMCCDIQEKLRNRIPNFQAAVDVSNSMATIHNTLTPKHSTFVVTEQYPKGVGHVAKDITLPEGTPVIEKLQPSMLVPEMMPYIDGDAARGILPVQQAVLWGHETHVCVLQTADELLSRNIRVAVLVDGCASQQQLDHDVAIQEMAGWENLTLTTTISVLLQLSRGDRWIRGALMKVVKPKWADPSRFPSLPADGERPKA
soluble on expression in E. coli: soluble

MKNNLPIIALDFASAEETLAFLAPFQQEPLFVKVGMELFYQEGPSIVKQLKERNCELFLDLKLHDIPTTVNKAMKRLASLGVDLVNVHAAGGKKMMQAALEGLEEGTPAGKKRPSLIAVTQLTSTSEQIMKDELLIEKSLIDTVVHYSKQAEESGLDGVVCSVHEAKAIYQAVSPSFLTVTPGIRMSEDAANDQVRVATPAIAREKGSSAIVVGRSITKAEDPVKAYKAVRLEWEGIKS
soluble on expression in E. coli: soluble

SNAMNDIVASTQLPNTIKTITNDLRKLGLKKGMTVIVHSSLSSIGWISGGAVAVVEALMEVITEEGTIIMPTQSSDLSDPKHWSRPPVPEEWWQIIRDNVPAFEPHITPTRAMGKVVECFRTYPNVVRSNHPLGSFAAWGRHAEEITVNQSLSMSLGEESPLRKIYDLDGYILLIGVGYDSNTSVALSEVRSGACELIKVGAPIIENGERVWKEFVDMDYDSDKFVEIGVEFEQKGTVTMGKIGNAKCRLMKQRDIVDFGTEWFRKKN
soluble on expression in E. coli: soluble

Reference: the DeepSol protein solubility set
